Laboratory results as given in paper PMC9154124.

Target: chimeric H5 Env: Env_(HXB2) with the V3 loop of Env_(SF162) (HIV-1 strain HXB2 | HIV-1 strain SF162) (UniProt P04578)

“Human soluble CD4-183 (sCD4-183) two-domain protein (domain or fragment)” was tested, and the inhibition by sCD4 of the infectivity of HIV-1 pseudotyped with Env (titration, Fig 3A); loss of potency against H4 Env was > 50 fold and the sCD4-induced gp120 shedding from Env-expressing HEK293T cells (Fig 3B); shift of the sCD4 dependence against H4 Env was > 10 fold.
